Data taken from patent publication JP2021054739A, “ビオチン改変二量体とフタロシアニン染料とのコンジュゲート” (dated 2021).

What was measured:
[1] = molecular target: T1, CEACAM5 (Recombinant Human CEACAM-5/CD66e Protein) (Homo sapiens, UniProt P06731); experiment: SPR (Biacore T200), CEA-V2122 on immobilised CEACAM5; assay type: binding
T1 construct: purchased R&D SYSTEMS
T1 sequence (P06731 35-702): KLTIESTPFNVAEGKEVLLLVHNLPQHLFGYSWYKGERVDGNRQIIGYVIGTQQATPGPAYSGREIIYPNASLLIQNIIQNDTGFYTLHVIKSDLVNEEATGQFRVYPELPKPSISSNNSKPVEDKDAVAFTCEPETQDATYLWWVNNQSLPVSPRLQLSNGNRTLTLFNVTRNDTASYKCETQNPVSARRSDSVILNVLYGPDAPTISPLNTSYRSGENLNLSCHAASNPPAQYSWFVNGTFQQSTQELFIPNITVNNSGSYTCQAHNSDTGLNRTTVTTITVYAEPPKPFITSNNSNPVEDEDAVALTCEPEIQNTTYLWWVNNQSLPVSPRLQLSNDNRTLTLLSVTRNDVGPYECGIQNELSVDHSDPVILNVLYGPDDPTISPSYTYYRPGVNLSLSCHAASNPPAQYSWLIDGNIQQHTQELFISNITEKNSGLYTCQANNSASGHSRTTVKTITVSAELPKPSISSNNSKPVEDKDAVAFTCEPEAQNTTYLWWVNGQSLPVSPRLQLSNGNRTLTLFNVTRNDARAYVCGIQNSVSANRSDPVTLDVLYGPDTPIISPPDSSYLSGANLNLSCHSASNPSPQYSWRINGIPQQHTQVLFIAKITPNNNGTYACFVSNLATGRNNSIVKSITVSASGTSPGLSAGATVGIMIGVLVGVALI

[2] = system: CEACAM5 on CEACAM5-positive MKN-45 cells and CEACAM5-negative DLD1 cells [CEACAM5陽性のヒト胃がん由来MKN-45細胞とCEACAM5陰性のヒト結腸がん由来DLD1細胞]; experiment: Cell staining with FITC-labelled CEA-V2122 (In Cell Analyzer 6000); assay type: cell-based, human
[3] = SPR, Single-Cycle Kinetics, Bivalent Analyze fit, analyte CEA-V2122 1E-08 M to 6.25E-10 M

B1: CEA-V2122: anti-CEACAM5 scFv joined by amino acid linker GGGGSGGGG to streptavidin variant V2122 (SEQ ID NO: 3) (protein)
chain: QVKLEQSGAEVVKPGASVKLSCKASGFNIKDSYMHWLRQGPGQRLEWIGWIDPENGDTEYAPKFQGKATFTTDTSANTAYLGLSSLRPEDTAVYYCNEGTPTGPYYFDYWGQGTLVTVSSGGGGSGGGGSGGGGSENVLTQSPSSMSVSVGDRVNIACSASSSVPYMHWLQQKPGKSPKLLIYLTSNLASGVPSRFSGSGSGTDYSLTISSVQPEDAATYYCQQRSSYPLTFGGGTKLEIKGGGGSGGGGAEAGITGTWSDQLGDTFIVTAGADGALTGTYENAVGGAESRYVLTGRYDSAPATDGSGTALGWTVAWKNNSKNAHSATTWSGQYVGGADAKINTQWLLTSGTTNANAWKSTLVGHDTFTKVKPSAASHHHHHH
KD (kd1/ka1) ([1]; SPR, Single-Cycle Kinetics, Bivalent Analyze fit, KD = kd1/ka1): 1.078E-12 | ka1 [1, 3]: 3.208E+5 | kd1 [1, 3]: 3.461E-7 | binding to CEACAM5 (in words) ([1]; from sensorgram and KD value, Fig. 3): 強く結合する

B2: CEA-V2122-FITC: CEA-V2122 labelled with FITC (Fluorescein Labeling Kit - NH2) (conjugate)
chain: QVKLEQSGAEVVKPGASVKLSCKASGFNIKDSYMHWLRQGPGQRLEWIGWIDPENGDTEYAPKFQGKATFTTDTSANTAYLGLSSLRPEDTAVYYCNEGTPTGPYYFDYWGQGTLVTVSSGGGGSGGGGSGGGGSENVLTQSPSSMSVSVGDRVNIACSASSSVPYMHWLQQKPGKSPKLLIYLTSNLASGVPSRFSGSGSGTDYSLTISSVQPEDAATYYCQQRSSYPLTFGGGTKLEIKGGGGSGGGGAEAGITGTWSDQLGDTFIVTAGADGALTGTYENAVGGAESRYVLTGRYDSAPATDGSGTALGWTVAWKNNSKNAHSATTWSGQYVGGADAKINTQWLLTSGTTNANAWKSTLVGHDTFTKVKPSAASHHHHHH
recognition of CEACAM5 on the cell membrane surface (in words) ([2]; 20 nM CEA-V2122-FITC, 4℃, 30 min, Fig. 5): 細胞膜表面のCEACAM5を特異的に認識する | behaviour of CEACAM5 after CEA-V2122-FITC binding (in words) ([2]; MKN45 cells, time series, Fig. 6): 細胞膜表面に滞留する
